# Assay results from PMC5536852.
# Like-named read-outs stand apart in the source and are kept apart here.
# Key:
# [1] = target: PP1γ, active form (His-tagged protein phosphatase 1 gamma) (UniProt P36873); test: enzyme inhibition kinetics
# [2] = target: PP1γ, active form (His-tagged protein phosphatase 1 gamma) (UniProt P36873); test: enzyme inhibition kinetics; remark: listed apart in the source
# UniProt P36873, sequence (P36873 whole entry): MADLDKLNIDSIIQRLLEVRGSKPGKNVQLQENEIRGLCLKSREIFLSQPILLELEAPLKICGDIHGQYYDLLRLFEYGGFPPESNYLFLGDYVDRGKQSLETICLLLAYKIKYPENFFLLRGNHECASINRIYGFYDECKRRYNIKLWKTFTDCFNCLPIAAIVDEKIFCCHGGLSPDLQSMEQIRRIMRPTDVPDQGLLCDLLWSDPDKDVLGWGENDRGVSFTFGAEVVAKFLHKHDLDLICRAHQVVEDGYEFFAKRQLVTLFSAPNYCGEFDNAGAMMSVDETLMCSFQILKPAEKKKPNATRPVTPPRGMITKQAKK
substance,measurement,setting,value
His-tagged RRM1 (isolated RNA recognition motif 1 of SRSF1) (domain or fragment),Ki,[1],0.41 µM
same,Ki,[2],0.35 µM
